Experimental data taken from paper PMC11147780.

Tests used:
[1] = target: 10E8 unmutated common ancestor antibody; experiment: SPR; details: chain shown with the change;; read off a plot
[2] = target: 10E8-iGL3 antibody (fully germline-reverted 10E8); experiment: SPR; details: chain shown with the change;; read off a plot

Row | Binder | Kd [1] [nM] | Kd [2] [nM]
1 | MPER (scaffold without germline-targeting mutations) 10E8-GT10.2 (substitutions not printed in the panel; sequence in Extended Data Fig. 1h) (protein) NVTQEDIIRALASPLIKDGMVDEDFAEYVIARENRSPTGLQAKGVGVAIPHTLGDYVRDNAISVGILDKPVNFSGWYQSPDPVPVRVVFMLAGRTWDDIVIVLKWIKDVILDEEFMKRLLNMSDEEIYRQIYTRISKAPNLSGINFSREYVRHLN | 38 | 11000
2 | MPER (scaffold without germline-targeting mutations) 10E8-GT11 (substitutions not printed in the panel; sequence in Extended Data Fig. 1h) (protein) VTQEDIIRALASPLIKDGMVDEDFAEKVIEQESRYPTGLQAKGVGVAIPHTLGDYVRDNAISVGILDKPVNFEGWYQSPDPVPVRVVFMLAIRTWDDIVNVLNWIKDVILDEEFMKRLLTMSDEEIYRQIYTRISKAPQLSGIHFKREYVRHLG | 1400 | 20000
3 | MPER (scaffold without germline-targeting mutations) 10E8-GT12 (substitutions not printed in the panel; sequence in Extended Data Fig. 1h) (protein) ETGNVTQEDIIRALASPLIKDGMVDEDFAEKVIENESRYPSGLQAKGVGFAIPHVLGDYVRDNAISVGILDKPVNFSEWYQSPDPVPVRVVFMLAIRTWDDITNVMNWIKDVVLDEEFMKRLLNMSDEEIYRQIYTRISKAPNLSGINFSREYVRHLNGS | 180 | 1800
4 | 10E8-GT9.2 epitope scaffold P41Q (protein) EVTQEDIIRALASPLIKDGMVDEDFAEYVIEREKRSPTGLQVKGVGVAIPHTLGEYVRDNAISVGILDKPVNFEGWYQSPDPVPVRVVFMLAGRTWDDIVNVLKWIKDVILDEEFMKRLLTMSDEEIYRQIYTRISKAPGMRGIHFKREYVRHLG | – | 8000
